Among the data in publication PMC9684555, “Structure- and computational-aided engineering of an oxidase to produce isoeugenol from a lignin-derived compound” (Nature Communications, 2022) are Km and kcat values, retold here.

Substrate in data set [1]: CCCc1ccc(O)c(OC)c1
The data set is described as follows: purified protein. The format is biochemical, Rhodococcus jostii. As to conditions: 50 mM KPi pH 7.5, 10% v/v DMSO, 10 µM to 1 mM substrate, O2 co-substrate, 1.0 µM enzyme.

Substrate in data set [2]: COc1cc(CO)ccc1O
As to the kind of experiment: purified protein. The format is biochemical, Rhodococcus jostii. Conditions: 50 mM KPi pH 7.5, O2 co-substrate, 0.05 µM enzyme.

B1: EUGO (eugenol oxidase) (Rhodococcus jostii RHA1) (protein)
chain: MTRTLPPGVSDERFDAALQRFRDVVGDKWVLSTADELEAFRDPYPVGAAEANLPSAVVSPESTEQVQDIVRIANEYGIPLSPVSTGKNNGYGGAAPRLSGSVIVKTGERMNRILEVNEKYGYALLEPGVTYFDLYEYLQSHDSGLMLDCPDLGWGSVVGNTLDRGVGYTPYGDHFMWQTGLEVVLPQGEVMRTGMGALPGSDAWQLFPYGFGPFPDGMFTQSNLGIVTKMGIALMQRPPASQSFLITFDKEEDLEQIVDIMLPLRINMAPLQNVPVLRNIFMDAAAVSKRTEWFDGDGPMPAEAIERMKKDLDLGFWNFYGTLYGPPPLIEMYYGMIKEAFGKIPGARFFTHEERDDRGGHVLQDRHKINNGIPSLDELQLLDWVPNGGHIGFSPVSAPDGREAMKQFEMVRNRANEYNKDYAAQFIIGLREMHHVCLFIYDTAIPEAREEILQMTKVLVREAAEAGYGEYRTHNALMDDVMATFNWGDGALLKFHEKIKDALDPNGIIAPGKSGIWSQRFRGQNL
notes: full length, 526 residues, C-terminal His6 tag (pBAD-EUGO-His6x), E. coli NEB10beta; covalent FAD; homodimer; mutants for crystals from His-SUMO fusion, tag cleaved
The Km is the concentration of substrate that gives half-maximal velocity. As a reminder, the kcat is the number of substrate molecules converted per active site and unit of time at saturation. On to B1, for which the Km was found to be 3.3 ± 0.9 µM in “purified protein [1]” and 43.0 ± 2.2 µM in the data set “purified protein [2]”. Moreover, the kcat in “purified protein [1]” amounted to 0.008 ± 0.0003 s⁻¹; in the data set “purified protein [2]”, 6.8 ± 0.2 s⁻¹.
